Test results reported in article PMC9666304, “Quinone binding site in a type VI sulfide:quinone oxidoreductase” (Applied Microbiology and Biotechnology, 2022).
Substitutions are numbered along the chain they refer to. In names and notes the source's numbering stands.

T1: TrSqrF; SqrF WT (Thiocapsa roseopersicina, UniProt A0A1Z2RRG1)
T1 sequence (A0A1Z2RRG1 1-375): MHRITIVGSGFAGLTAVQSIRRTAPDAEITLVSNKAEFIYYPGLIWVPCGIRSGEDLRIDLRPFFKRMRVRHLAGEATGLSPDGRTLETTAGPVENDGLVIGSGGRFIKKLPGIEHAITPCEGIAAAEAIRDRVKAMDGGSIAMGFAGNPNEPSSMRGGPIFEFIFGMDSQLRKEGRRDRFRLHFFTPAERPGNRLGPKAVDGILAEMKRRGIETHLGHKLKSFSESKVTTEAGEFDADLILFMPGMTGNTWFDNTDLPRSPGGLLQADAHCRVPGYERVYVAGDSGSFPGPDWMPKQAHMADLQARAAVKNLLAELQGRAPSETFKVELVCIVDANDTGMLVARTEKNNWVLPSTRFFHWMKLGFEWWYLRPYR

B1: SqrF CTD (Thiocapsa roseopersicina) (protein)
chain: MHRITIVGSGFAGLTAVQSIRRTAPDAEITLVSNKAEFIYYPGLIWVPCGIRSGEDLRIDLRPFFKRMRVRHLAGEATGLSPDGRTLETTAGPVENDGLVIGSGGRFIKKLPGIEHAITPCEGIAAAEAIRDRVKAMDGGSIAMGFAGNPNEPSSMRGGPIFEFIFGMDSQLRKEGRRDRFRLHFFTPAERPGNRLGPKAVDGILAEMKRRGIETHLGHKLKSFSESKVTTEAGEFDADLILFMPGMTGNTWFDNTDLPRSPGGLLQADAHCRVPGYERVYVAGDSGSFPGPDWMPKQAHMADLQARAAVKNLLAELQGRAPSETFKVELVCIVDANDTGMLVARTEKNNWVLPST
notes: C-terminal alpha-helix deletion, stop codons after Thr356; N-terminal StrepII tag, expressed in T. roseopersicina FOQRON
B2: TrSqrF; SqrF WT (Thiocapsa roseopersicina) (protein)
chain: T1 sequence (A0A1Z2RRG1 1-375)
B3: TrSqrF; SqrF WT (Thiocapsa roseopersicina; I333F) (protein)
chain: T1 sequence (A0A1Z2RRG1 1-375) with I333F
B4: TrSqrF; SqrF WT (Thiocapsa roseopersicina; F366A) (protein)
chain: T1 sequence (A0A1Z2RRG1 1-375) with F366A
B5: TrSqrF; SqrF WT (Thiocapsa roseopersicina; V331F) (protein)
chain: T1 sequence (A0A1Z2RRG1 1-375) with V331F
B6: TrSqrF; SqrF WT (Thiocapsa roseopersicina; F366Y) (protein)
chain: T1 sequence (A0A1Z2RRG1 1-375) with F366Y
B7: TrSqrF; SqrF WT (Thiocapsa roseopersicina; V331A) (protein)
chain: T1 sequence (A0A1Z2RRG1 1-375) with V331A

Legend:
TrSqrF; SqrF WT = biological target: T1, TrSqrF; SqrF WT; experiment: UV-visible absorption of purified protein; in-gel FAD fluorescence; assay type: binding; details: co-purified cofactor
purified protein [1] = substrate: CC1=C(C)C(=O)C(C)=C(C)C1=O; experiment: purified protein; assay type: biochemical, Thiocapsa roseopersicina; details: 200 µM sulfide, 50 mM Tris-HCl pH 8.0, 25 °C, anaerobic
purified protein [2] = substrate: CCCCCCCCCCC1=C(C)C(=O)C(OC)=C(OC)C1=O; experiment: purified protein; assay type: biochemical, Thiocapsa roseopersicina; details: 200 µM sulfide, 50 mM Tris-HCl pH 8.0, 25 °C, anaerobic

Molecule | UV-visible absorption of purified protein; in-gel FAD fluorescence (TrSqrF; SqrF WT) | Km (purified protein [1]) | kcat (purified protein [1]) | kcat/Km (purified protein [1]) | Km (purified protein [2]) | kcat (purified protein [2]) | kcat/Km (purified protein [2])
Cc1cc2nc3c(=O)[nH]c(=O)nc-3n(C[C@H](O)[C@H](O)[C@H](O)COP(=O)(O)OP(=O)(O)OC[C@H]3O[C@@H](n4cnc5c(N)ncnc54)[C@H](O)[C@@H]3O)c2cc1C [FAD, flavin adenine dinucleotide] | Absorption maxima at these wavelengths indicated that all TrSqrF variants contained the FAD cofactor |  |  |  |  |  | 
B1 |  | 70.71 ± 44.78 µM | 0.96 ± 0.24 s⁻¹ | 14000 M⁻¹ s⁻¹ | 18.99 ± 0.67 µM | 4.9 ± 0.8 s⁻¹ | 268000 M⁻¹ s⁻¹
B2 |  | 27.39 ± 2.47 µM | 1.25 ± 0.04 s⁻¹ | 46000 M⁻¹ s⁻¹ | 24.47 ± 6.42 µM | 8.37 ± 0.33 s⁻¹ | 342000 M⁻¹ s⁻¹
B3 |  | 102.7 ± 69.9 µM | 0.72 ± 0.21 s⁻¹ | 7000 M⁻¹ s⁻¹ | 13.98 ± 7.20 µM | 1.2 ± 0.48 s⁻¹ | 86000 M⁻¹ s⁻¹
B4 |  | 46.19 ± 2.53 µM | 0.26 ± 0.01 s⁻¹ | 6000 M⁻¹ s⁻¹ | 9.38 ± 1.97 µM | 1.97 ± 0.28 s⁻¹ | 210000 M⁻¹ s⁻¹
B5 |  | 40.23 ± 7.36 µM | 0.72 ± 0.02 s⁻¹ | 18000 M⁻¹ s⁻¹ | 12.33 ± 0.86 µM | 3.64 ± 1.06 s⁻¹ | 295000 M⁻¹ s⁻¹
B6 |  | 79.30 ± 14.68 µM | 0.57 ± 0.08 s⁻¹ | 7000 M⁻¹ s⁻¹ | 10.03 ± 1.39 µM | 3.17 ± 0.82 s⁻¹ | 316000 M⁻¹ s⁻¹
B7 |  |  |  |  | 18.99 ± 6.10 µM | 2.47 ± 0.33 s⁻¹ | 130000 M⁻¹ s⁻¹
